Assays:
[1] = target: T1, SarZ (Staphylococcus aureus, UniProt Q5HDG9 1-148); assay: EMSA
T1 sequence: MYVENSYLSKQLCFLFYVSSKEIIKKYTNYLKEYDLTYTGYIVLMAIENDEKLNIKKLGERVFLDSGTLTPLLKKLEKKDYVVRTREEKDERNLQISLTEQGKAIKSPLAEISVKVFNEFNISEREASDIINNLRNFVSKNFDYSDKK

[2] = target: SarZ C13S (Staphylococcus aureus, UniProt Q5HDG9 1-148, C13S); assay: EMSA

B1: ohr promoter fragment (ohr1/ohr2) (dsDNA)
DNA 1: TTTTCGAATGGGTAAAGCATAAATGTATTTTAAATTAGGAGGTTATAAGT
DNA 2: ACTTATAACCTCCTAATTTAAAATACATTTATGCTTTACCCATTCGAAAA
- binding result [1]: binds
- binding result [2]: binds
